The text below walks through data of publication PMC6820244.

In data set [1] the target is T1, WRNIP1 (short isoform) (Homo sapiens, UniProt Q96S55-2 1-640).
T1 sequence: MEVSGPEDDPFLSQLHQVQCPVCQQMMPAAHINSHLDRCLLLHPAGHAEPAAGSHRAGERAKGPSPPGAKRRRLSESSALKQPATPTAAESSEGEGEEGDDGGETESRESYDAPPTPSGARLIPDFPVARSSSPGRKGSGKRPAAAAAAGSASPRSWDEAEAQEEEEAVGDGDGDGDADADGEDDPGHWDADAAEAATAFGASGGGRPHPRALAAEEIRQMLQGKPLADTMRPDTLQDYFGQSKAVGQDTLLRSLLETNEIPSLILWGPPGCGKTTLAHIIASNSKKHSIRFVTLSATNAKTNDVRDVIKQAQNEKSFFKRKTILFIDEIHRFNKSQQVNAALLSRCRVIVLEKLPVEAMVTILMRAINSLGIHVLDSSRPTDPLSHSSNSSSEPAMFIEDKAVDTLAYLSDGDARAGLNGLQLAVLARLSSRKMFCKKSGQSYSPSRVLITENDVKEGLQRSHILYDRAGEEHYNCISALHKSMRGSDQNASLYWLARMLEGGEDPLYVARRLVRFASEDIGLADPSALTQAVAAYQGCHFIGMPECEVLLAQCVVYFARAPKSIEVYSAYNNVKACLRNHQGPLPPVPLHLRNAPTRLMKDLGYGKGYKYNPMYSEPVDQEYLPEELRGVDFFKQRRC
Description: EMSA.

The target in data set [2] is T1, WRNIP1 (short isoform). Nature of the data set: EMSA. This is another data set of the same source.

Where two headings read alike, the source gives them in different places.

B1: ssDNA X01 (ssDNA)
DNA: GACGCTGCCGAATTCTACCAGTGCCTTGCTAGGACATCTTTGCCCACCTGCAGGTTCACCC
Turning to B1, the binding result with WRNIP1 (short isoform) [1] is reported as “no binding”.

B2: nicked four-way junction (structured_DNA)
DNA 1: GACGCTGCCGAATTCTACCAGTGCCTTGCTAGGACATCTTTGCCCACCTGCAGGTTCACCC
DNA 2: TGGGTGAACCTGCAGGTGGGCAAAGATGTCCATCTGTTGTAATCGTCAAGCTTTATGCCGTT
DNA 3: CATGGAGCTGTCTAGAGGATCCGACTATCGA
DNA 4: GAACGGCATAAAGCTTGACGATTACAACAGAT
DNA 5: ATCGATAGTCGGATCCTCTAGACAGCTCCATGTAGCAAGGCACTGGTAGAATTCGGCAGCGT
For B2, in the data set with WRNIP1 (short isoform) [2], the binding result is given as “binds”.
